According to paper PMC8559680, “Dynamics in Fip1 regulate eukaryotic mRNA 3′ end processing” (Genes & Development, 2021):

B1: Fip1_(226) (Fip1 residues 1–226), purified from E. coli (domain or fragment, yeast, UniProt P45976 1-226, looked up)
chain: MSSSEDEDDKFLYGSDSELALPSSKRSRDDEADAGASSNPDIVKRQKFDSPVEETPATARDDRSDEDIYSDSSDDDSDSDLEVIISLGPDPTRLDAKLLDSYSTAATSSSKDVISVATDVSNTITKTSDERLITEGEANQGVTATTVKATESDGNVPKAMTGSIDLDKEGIFDSVGITTIDPEVLKEKPWRQPGANLSDYFNYGFNEFTWMEYLHRQEKLQQDYNP
notes: Isotopically labelled (15N, 13C, 2H) where it is the observed species in NMR; cloned in pET28a+; also called Fip226; source: E. coli BL21 Star, purified (Ni-NTA, TEV cleavage, Superdex 75); not shown: His tag, N-terminal, cleaved

What was measured:
[1] = molecular target: B1; experiment: NMR titration; 15N-labelled Yth1 construct with unlabelled Fip1_(226), equimolar, 75 µM; chemical shift perturbations and line broadening; 700 MHz, 298 K, 50 mM HEPES (pH 7.4), 150 mM NaCl; settings: both partners purified
[2] = molecular target: Yth1ZF4 (Yth1 zinc finger 4) (yeast) (UniProt Q06102); experiment: ITC; MicroCal iTC200, 25°C, 50 mM HEPES (pH 7.4), 150 mM NaCl; single class-binding site model
[3] = molecular target: T1, CPFΔFip1 (recombinant CPF lacking Fip1; Pap1 also absent) (yeast, UniProt Q06632 1-1357; P42841 1-465; Q06102 1-208; Q12102 1-859; Q06224 1-779; P35728 …); experiment: mass photometry; Refeyn One iSCAT; samples diluted to 100 nM in 50 mM HEPES (pH 7.4), 150 mM NaCl; settings: both partners purified
T1 construct: Cft1, yeast; as m20; Pfs2, yeast, untagged; as m19; Yth1, yeast, untagged; as m12; Cft2, yeast; as m21; Ysh1, yeast; as m22; Mpe1, yeast; as m23; Pta1, yeast; as m24; Ssu72, yeast; as m25; Pti1, yeast; as m26; Glc7, yeast; as m27; as m28; Swd2, yeast; as m29; Twelve subunits: Fip1 was omitted from the CPFcore construct and Pap1, though co-expressed, was absent from the purified complex; source: …

binding result [1]	Kd [2] [nM]	binding result [3]	Binder
binds			Yth1_(ZF45C) (Yth1 residues 118–208) (domain or fragment, yeast, UniProt Q06102 118-208, looked up, Yth1, yeast, zinc fingers 4 and 5 and the rest of the C-terminal region, residues 118–208; 15N- or 13C,15N-labelled where it is the observed species in NMR; cloned in pGEX6P-2; also called entire C-terminal half of Yth1; source: E. coli BL21 Star, purified (GST resin, 3C cleavage, Superdex 75); not shown: GST, N-terminal, cleaved) ASKIPKCENYEMGFCPLGSSCPRRHIKKVFCQRYMTGFCPLGKDECDMEHPQFIIPDEGSKLRIKRDDEINTRKMDEEKERRLNAIINGEV
	240	binds	B1
